Broadly, the Kd is the free concentration of one partner at which half of the binding sites on the other are occupied at equilibrium, for simple one-to-one binding.

The experiment has as its target T1, 6×His-tagged Kv3.1 T1 domain (His-31T1) (UniProt P25122 1-190).
T1 sequence (looked up): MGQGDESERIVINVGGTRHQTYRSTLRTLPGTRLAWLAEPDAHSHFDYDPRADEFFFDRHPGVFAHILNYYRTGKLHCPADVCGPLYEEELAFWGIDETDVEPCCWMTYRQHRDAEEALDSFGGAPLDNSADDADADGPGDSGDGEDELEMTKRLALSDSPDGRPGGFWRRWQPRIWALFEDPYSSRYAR
Kind of experiment: SPR. In general terms: SPR reads the build-up and loss of mass on a sensor chip optically.

B1: GST-fused MAP6 Mn modules (GST-M115–221; aa 115–221 from MAP6N) (domain or fragment, UniProt Q63560 115-221, looked up)
chain: ADSVMRQDYRAWKVQRPEPSCRPRSEYQPSDAPFERETQYQKDFRAWPLPRRGDHPWIPKPVQIPATSQPSPPVLGMPKRRPQSQERGPIQLSADARDPEGAGGAGV
B1 displayed a dissociation constant Kd of 62.5 ± 18.4 nM.

The record behind these values is article PMC10905646 (Molecular psychiatry, 2023).
